{"source": "paper PMC4784741", "key": {"[1]": {"molecular_target": "recombinant human cathepsin L (human)"}, "[2]": {"molecular_target": "recombinant p31 Ii without cytoplasmic and transmembrane domain (and no inhibitory fragment) (human)", "assay": "SDS-PAGE with Western blot; recombinant Ii isoforms separated by SDS-PAGE, blotted and labelled with anti-Ii (LN2) mAb; minor bands above the monomers"}, "[3]": {"molecular_target": "recombinant p41 Ii without cytoplasmic and transmembrane domain (with inhibitory p41 fragment included) (human)", "assay": "SDS-PAGE with Western blot; recombinant Ii isoforms separated by SDS-PAGE, blotted and labelled with anti-Ii (LN2) mAb; minor bands above the monomers"}}, "data": [{"substance": "p41 fragment of invariant chain p41 Ii (domain or fragment)", "values": [{"measurement": "active site titration: degradation of Z-Phe-Arg-AMC by cathepsin L (2.5 nM) with p41 fragment 0.5 nM to 3 nM; molar ratio at which the activity is abolished (molar ratio p41 fragment/cathepsin L)", "setting": "[1]", "value": 1}]}, {"substance": "recombinant p31 Ii without cytoplasmic and transmembrane domain (and no inhibitory fragment) (domain or fragment)", "values": [{"measurement": "stoichiometry N", "setting": "[2]", "value": 2}]}, {"substance": "recombinant p41 Ii without cytoplasmic and transmembrane domain (with inhibitory p41 fragment included) (domain or fragment)", "values": [{"measurement": "stoichiometry N", "setting": "[3]", "value": 2}]}]}
